Test results taken from patent US10005829B2, “Synthetic linear apelin mimetics for the treatment of heart failure” (priority 2012, dated 2018).
[ ]: non-standard residue; d: D form. pGlu = O=C1CC[C@@H](C(=O)O)N1; dNle = CCCC[C@@H](N)C(=O)O; dNva = CCC[C@@H](N)C(=O)O; Nle = CCCC[C@H](N)C(=O)O; Aib = CC(C)(N)C(=O)O

T1: APJ receptor (human, UniProt P35414 1-380)
T1 sequence (looked up): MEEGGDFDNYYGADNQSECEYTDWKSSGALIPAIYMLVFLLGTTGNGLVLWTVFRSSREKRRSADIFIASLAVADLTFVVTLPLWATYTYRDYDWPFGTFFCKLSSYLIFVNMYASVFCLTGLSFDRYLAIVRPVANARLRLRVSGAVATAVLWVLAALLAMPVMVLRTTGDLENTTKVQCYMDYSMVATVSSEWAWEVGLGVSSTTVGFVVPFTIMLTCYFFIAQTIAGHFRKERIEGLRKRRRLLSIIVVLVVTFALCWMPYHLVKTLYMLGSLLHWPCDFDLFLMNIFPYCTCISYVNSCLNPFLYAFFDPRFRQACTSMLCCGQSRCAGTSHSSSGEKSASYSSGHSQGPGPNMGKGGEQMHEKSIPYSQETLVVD

B1: pE-R-P-R-L-a-H-K-G-P-Nle-f-OH (peptide)
peptide: ERPRLAHKGPLF
modifications: pE at 1; D-Ala at 6; Nle (L-norleucine) at 11; D-Phe at 12
B2: pE-R-P-R-L-a-H-K-G-P-Nle-a-F-OH (peptide)
peptide: [pGlu]RPRL[dA]HKGP[Nle][dA]F-OH
B3: pE-R-P-R-L-a-H-K-G-P-nva-a-f-OH (peptide)
peptide: [pGlu]RPRL[dA]HKGP[dNva][dA][dF]-OH
SMILES: CCC[C@@H](NC(=O)[C@@H]1CCCN1C(=O)CNC(=O)[C@H](CCCCN)NC(=O)[C@H](Cc1c[nH]cn1)NC(=O)[C@@H](C)NC(=O)[C@H](CC(C)C)NC(=O)[C@H](CCCNC(=N)N)NC(=O)[C@@H]1CCCN1C(=O)[C@H](CCCNC(=N)N)NC(=O)[C@@H]1CCC(=O)N1)C(=O)N[C@H](C)C(=O)N[C@H](Cc1ccccc1)C(=O)O
B4: pE-R-P-R-L-nva-H-K-G-P-nle-a-f-OH (peptide)
peptide: [pGlu]RPRL[dNva]HKGP[dNle][dA][dF]-OH
SMILES: CCCC[C@@H](NC(=O)[C@@H]1CCCN1C(=O)CNC(=O)[C@H](CCCCN)NC(=O)[C@H](Cc1c[nH]cn1)NC(=O)[C@@H](CCC)NC(=O)[C@H](CC(C)C)NC(=O)[C@H](CCCNC(=N)N)NC(=O)[C@@H]1CCCN1C(=O)[C@H](CCCNC(=N)N)NC(=O)[C@@H]1CCC(=O)N1)C(=O)N[C@H](C)C(=O)N[C@H](Cc1ccccc1)C(=O)O
B5: pE-R-P-R-L-S-a-K-G-P-nle-a-f-OH (peptide)
peptide: [pGlu]RPRLS[dA]KGP[dNle][dA][dF]-OH
SMILES: CCCC[C@@H](NC(=O)[C@@H]1CCCN1C(=O)CNC(=O)[C@H](CCCCN)NC(=O)[C@@H](C)NC(=O)[C@H](CO)NC(=O)[C@H](CC(C)C)NC(=O)[C@H](CCCNC(=N)N)NC(=O)[C@@H]1CCCN1C(=O)[C@H](CCCNC(=N)N)NC(=O)[C@@H]1CCC(=O)N1)C(=O)N[C@H](C)C(=O)N[C@H](Cc1ccccc1)C(=O)O
B6: pE-R-P-R-(D-Leu)-S-Aib-K-G-P-nle-a-f-OH (peptide)
peptide: [pGlu]RPR[dL]S[Aib]KGP[dNle][dA][dF]-OH
SMILES: CCCC[C@@H](NC(=O)[C@@H]1CCCN1C(=O)CNC(=O)[C@H](CCCCN)NC(=O)C(C)(C)NC(=O)[C@H](CO)NC(=O)[C@@H](CC(C)C)NC(=O)[C@H](CCCNC(=N)N)NC(=O)[C@@H]1CCCN1C(=O)[C@H](CCCNC(=N)N)NC(=O)[C@@H]1CCC(=O)N1)C(=O)N[C@H](C)C(=O)N[C@H](Cc1ccccc1)C(=O)O
B7: pE-R-P-R-Y-a-H-K-G-P-nle-a-f-OH (peptide)
peptide: [pGlu]RPRY[dA]HKGP[dNle][dA][dF]-OH
SMILES: CCCC[C@@H](NC(=O)[C@@H]1CCCN1C(=O)CNC(=O)[C@H](CCCCN)NC(=O)[C@H](Cc1c[nH]cn1)NC(=O)[C@@H](C)NC(=O)[C@H](Cc1ccc(O)cc1)NC(=O)[C@H](CCCNC(=N)N)NC(=O)[C@@H]1CCCN1C(=O)[C@H](CCCNC(=N)N)NC(=O)[C@@H]1CCC(=O)N1)C(=O)N[C@H](C)C(=O)N[C@H](Cc1ccccc1)C(=O)O
B8: pE-R-P-R-L-S-Aib-K-G-P-nle-a-f-OH (peptide)
peptide: [pGlu]RPRLS[Aib]KGP[dNle][dA][dF]-OH
SMILES: CCCC[C@@H](NC(=O)[C@@H]1CCCN1C(=O)CNC(=O)[C@H](CCCCN)NC(=O)C(C)(C)NC(=O)[C@H](CO)NC(=O)[C@H](CC(C)C)NC(=O)[C@H](CCCNC(=N)N)NC(=O)[C@@H]1CCCN1C(=O)[C@H](CCCNC(=N)N)NC(=O)[C@@H]1CCC(=O)N1)C(=O)N[C@H](C)C(=O)N[C@H](Cc1ccccc1)C(=O)O
B9: pE-R-P-R-L-S-Aib-K-G-P-Nle-P-f-OH (peptide)
peptide: ERPRLSXKGPLPF
modifications: pE at 1; Aib at 7; Nle (L-norleucine) at 11; D-Phe at 13
B10: pE-R-P-R-L-a-H-K-G-P-nle-a-f-NH2 (peptide)
peptide: [pGlu]RPRL[dA]HKGP[dNle][dA][dF]-NH2
B11: pE-R-P-R-L-a-f-K-G-P-nle-a-f-OH (peptide)
peptide: [pGlu]RPRL[dA][dF]KGP[dNle][dA][dF]-OH
SMILES: CCCC[C@@H](NC(=O)[C@@H]1CCCN1C(=O)CNC(=O)[C@H](CCCCN)NC(=O)[C@@H](Cc1ccccc1)NC(=O)[C@@H](C)NC(=O)[C@H](CC(C)C)NC(=O)[C@H](CCCNC(=N)N)NC(=O)[C@@H]1CCCN1C(=O)[C@H](CCCNC(=N)N)NC(=O)[C@@H]1CCC(=O)N1)C(=O)N[C@H](C)C(=O)N[C@H](Cc1ccccc1)C(=O)O
B12: pE-R-P-R-L-a-H-k-G-P-Nle-a-f-OH (peptide)
peptide: [pGlu]RPRL[dA]H[dK]GP[Nle][dA][dF]-OH
B13: pE-R-P-R-L-S-Aib-k-G-P-nle-a-f-OH (peptide)
peptide: [pGlu]RPRLS[Aib][dK]GP[dNle][dA][dF]-OH
SMILES: CCCC[C@@H](NC(=O)[C@@H]1CCCN1C(=O)CNC(=O)[C@@H](CCCCN)NC(=O)C(C)(C)NC(=O)[C@H](CO)NC(=O)[C@H](CC(C)C)NC(=O)[C@H](CCCNC(=N)N)NC(=O)[C@@H]1CCCN1C(=O)[C@H](CCCNC(=N)N)NC(=O)[C@@H]1CCC(=O)N1)C(=O)N[C@H](C)C(=O)N[C@H](Cc1ccccc1)C(=O)O
B14: pE-R-P-R-L-a-a-K-G-P-nle-a-f-OH (peptide)
peptide: [pGlu]RPRL[dA][dA]KGP[dNle][dA][dF]-OH
SMILES: CCCC[C@@H](NC(=O)[C@@H]1CCCN1C(=O)CNC(=O)[C@H](CCCCN)NC(=O)[C@@H](C)NC(=O)[C@@H](C)NC(=O)[C@H](CC(C)C)NC(=O)[C@H](CCCNC(=N)N)NC(=O)[C@@H]1CCCN1C(=O)[C@H](CCCNC(=N)N)NC(=O)[C@@H]1CCC(=O)N1)C(=O)N[C@H](C)C(=O)N[C@H](Cc1ccccc1)C(=O)O
B15: pE-R-P-R-L-a-H-K-G-P-Nle-P-f-OH (peptide)
peptide: ERPRLAHKGPLPF
modifications: pE at 1; D-Ala at 6; Nle (L-norleucine) at 11; D-Phe at 13
B16: pE-r-P-R-L-a-H-K-G-P-nle-a-f-OH (peptide)
peptide: [pGlu][dR]PRL[dA]HKGP[dNle][dA][dF]-OH
B17: pE-R-P-R-L-a-H-K-G-P-nle-a-NH(Phenethyl) (peptide)
peptide: ERPRLAHKGPLA
modifications: pE at 1; D-Ala at 6; D-Nle at 11; D-Ala at 12; C-terminal NH(Phenethyl) amide
B18: pE-R-a-R-L-a-H-K-G-P-nle-a-f-OH (peptide)
peptide: [pGlu]R[dA]RL[dA]HKGP[dNle][dA][dF]-OH
SMILES: CCCC[C@@H](NC(=O)[C@@H]1CCCN1C(=O)CNC(=O)[C@H](CCCCN)NC(=O)[C@H](Cc1c[nH]cn1)NC(=O)[C@@H](C)NC(=O)[C@H](CC(C)C)NC(=O)[C@H](CCCNC(=N)N)NC(=O)[C@@H](C)NC(=O)[C@H](CCCNC(=N)N)NC(=O)[C@@H]1CCC(=O)N1)C(=O)N[C@H](C)C(=O)N[C@H](Cc1ccccc1)C(=O)O
B19: pE-R-P-R-L-a-H-K-G-P-nle-abu-f-OH (peptide)
peptide: ERPRLAHKGPLXF
modifications: pE at 1; D-Ala at 6; D-Nle at 11; D-Abu at 12; D-Phe at 13
B20: pE-R-P-R-L-S-Aib-K-G-P-Nle-a-F-OH (peptide)
peptide: [pGlu]RPRLS[Aib]KGP[Nle][dA]F-OH
SMILES: CCCC[C@H](NC(=O)[C@@H]1CCCN1C(=O)CNC(=O)[C@H](CCCCN)NC(=O)C(C)(C)NC(=O)[C@H](CO)NC(=O)[C@H](CC(C)C)NC(=O)[C@H](CCCNC(=N)N)NC(=O)[C@@H]1CCCN1C(=O)[C@H](CCCNC(=N)N)NC(=O)[C@@H]1CCC(=O)N1)C(=O)N[C@H](C)C(=O)N[C@@H](Cc1ccccc1)C(=O)O
B21: H-R-P-R-L-a-H-K-G-P-nle-f-OH (peptide)
peptide: H-RPRL[dA]HKGP[dNle][dF]-OH
SMILES: CCCC[C@@H](NC(=O)[C@@H]1CCCN1C(=O)CNC(=O)[C@H](CCCCN)NC(=O)[C@H](Cc1c[nH]cn1)NC(=O)[C@@H](C)NC(=O)[C@H](CC(C)C)NC(=O)[C@H](CCCNC(=N)N)NC(=O)[C@@H]1CCCN1C(=O)[C@@H](N)CCCNC(=N)N)C(=O)N[C@H](Cc1ccccc1)C(=O)O
B22: pE-R-P-R-L-S-Aib-K-G-P-nle-a-F-OH (peptide)
peptide: [pGlu]RPRLS[Aib]KGP[dNle][dA]F-OH
SMILES: CCCC[C@@H](NC(=O)[C@@H]1CCCN1C(=O)CNC(=O)[C@H](CCCCN)NC(=O)C(C)(C)NC(=O)[C@H](CO)NC(=O)[C@H](CC(C)C)NC(=O)[C@H](CCCNC(=N)N)NC(=O)[C@@H]1CCCN1C(=O)[C@H](CCCNC(=N)N)NC(=O)[C@@H]1CCC(=O)N1)C(=O)N[C@H](C)C(=O)N[C@@H](Cc1ccccc1)C(=O)O
B23: pE-R-P-R-L-a-H-K-G-P-Nle-a-f-OH (peptide)
peptide: [pGlu]RPRL[dA]HKGP[Nle][dA][dF]-OH
B24: pE-R-P-R-L-a-L-K-G-P-nle-a-f-OH (peptide)
peptide: [pGlu]RPRL[dA]LKGP[dNle][dA][dF]-OH
SMILES: CCCC[C@@H](NC(=O)[C@@H]1CCCN1C(=O)CNC(=O)[C@H](CCCCN)NC(=O)[C@H](CC(C)C)NC(=O)[C@@H](C)NC(=O)[C@H](CC(C)C)NC(=O)[C@H](CCCNC(=N)N)NC(=O)[C@@H]1CCCN1C(=O)[C@H](CCCNC(=N)N)NC(=O)[C@@H]1CCC(=O)N1)C(=O)N[C@H](C)C(=O)N[C@H](Cc1ccccc1)C(=O)O
B25: pE-R-P-R-L-S-Aib-K-G-P-Nle-a-f-OH (peptide)
peptide: [pGlu]RPRLS[Aib]KGP[Nle][dA][dF]-OH
SMILES: CCCC[C@H](NC(=O)[C@@H]1CCCN1C(=O)CNC(=O)[C@H](CCCCN)NC(=O)C(C)(C)NC(=O)[C@H](CO)NC(=O)[C@H](CC(C)C)NC(=O)[C@H](CCCNC(=N)N)NC(=O)[C@@H]1CCCN1C(=O)[C@H](CCCNC(=N)N)NC(=O)[C@@H]1CCC(=O)N1)C(=O)N[C@H](C)C(=O)N[C@H](Cc1ccccc1)C(=O)O
B26: pE-R-P-R-L-abu-H-K-G-P-nle-a-f-OH (peptide)
peptide: ERPRLXHKGPLAF
modifications: pE at 1; D-Abu at 6; D-Nle at 11; D-Ala at 12; D-Phe at 13

Biological target: T1, APJ receptor
Assay: cell-based or functional assay

Binder | hAPJ Ca^2+ Flux EC50 [nM]
B1 | 10.7
B2 | 4.5
B3 | 8.7
B4 | 19.5
B5 | 8.5
B6 | 5
B7 | 114
B8 | 2
B9 | 4.5
B10 | 14.8
B11 | 9.2
B12 | 99
B13 | 79.9
B14 | 16.1
B15 | 34.5
B16 | 796
B17 | 16.2
B18 | 623
B19 | 2.4
B20 | 2.4
B21 | 1.4
B22 | 3.9
B23 | 2.4
B24 | 4.4
B25 | 3.3
B26 | 3
